From the DeepSol protein solubility set

Assay: soluble on expression in E. coli; label from the status in PepcDB or PDB records
For “MFIEVEKFVEARTNSIAQLLKAIDNDALVSGEVTKGPRTAAQRLPRHMRRRAMAYDIRRFPRTMREFAAAHLISKHAKKCPSRFARRKSANSRTKFGRSTSTKGIWLSTHVWHAKRFRMIQKWGFKLADRSFQRGFRAVLRDSNKNCVIRDRSYYTCVTIQCTDAYSKISQFSQKGCRGQSSRDEEEECHQLYMPGKYPFGYIGPARFQRLSGDKVHIWIHPSSKLQFMKALLEYYNLEKQENTEEDLYKNSEIKVSIDAENICRFHLSGPKCLSKLRDSIRFVNDEKFSSEHNYFLSVSDSVFQSSRDGEVINLLIEDPRTTWDRKTVLKHKKVNKEADNERIRVSKFWNKEFREMAIEKRMADSEFHKQNSSKINGVISTEAKVPIILIIRNEGLKALDGADILIPEPFAKDFWVSLQRRGVRASGLRDEYAAHLESKALYYPLDDVGSEAGRESELAMKKELIEKYLGKPHNRRCKHWSAVSVKYPFEFKWDELSQDWNLSNKPRSEAFVCRDLQKLRIIEEAMKKGSGLEEFQEPGMLIPVKLQFFGRGRPKKYGMVCLPTDDDLISIRKNRNREIIQTPPEASSQDSDIVEAMEIEEITVKKNQGFMSLEAAASEKPINLKLLFEETTKLDDKTTKRKRVNRKKRESKKRRKIEQEKRKEEAEVEEVQKLATKYRFSANREIIGRLVAGEQSVLAGHGVGIGYICANTLSLIASNYHKSKTVVMVRNSTSKYYHPAYVTILKNATKI”, the “soluble on expression in E. coli” value was “not soluble”. In the case of “MGSDKIHHHHHHMELVYKITYHRIQAHYLPKLVQAVQFVSEENLWKQGESVNSIGGIVLHICEHMQRNTSRYKNPNIVFEKGIEEYFPTKRQHTEVLLQYVEKVFDEWGKAYIQAWEEKRHIELHSLLHLVEHTSYHLGQIVDRTKLIKGQQFNFCQNGINEKNLRTRVETSKF”, the “soluble on expression in E. coli” value is reported as “not soluble”. For “MDYKEIVFDVDNTLIDTEYAILHSLQDTIKQINRKIIPIKELSFALGITGEDALRYLKIEDITIALSMWDRNMEKYKNTVLVFKEIKEMLTEIIKLNIGIGIVTSKTHEEFRNDFLSFDIAPYFNTVVCSNDTLEHKPKAVPLLKYMELTKCQNNELLYIGDSIYDMQCAYRANVDFGLVKWGSGDRVSTVISFTTPLDLIRQLSVSSN”, the “soluble on expression in E. coli” value was “not soluble”. In the case of “MLNQPRLDEIMRLLAQQQRVKASDLAQLLFVSEETIRRDFKHLEEEGRLRRIHGGAILPRSSEELPLQERSRLKPRAKAGIATCAAQLVTEGMAIFLDTGTSTLALAQQLTRFSQLKIITNSLDIAQLISHQSDNQVLVAPGDVRRTDNALIGPHTLEFARQFHYDIAFMGIGGIDLDLGLMDYQEPEAMLRRTLVRHCARSVVLADDGKFGHRTFINTLPFAAITTLVTNRPLSDEFATRLEKDHVDTLYP”, the “soluble on expression in E. coli” value is reported as “not soluble”. In the case of “MSLDARKNNVTIKVGMIGDSSIGKTSLMVTYVQGSFDEESTQTLGVNFMEKTISIRNTEITFSIWDLGGQREFVNMLPMVCNDAVAILFMFDLSRKSTLNSIKEWYRQARGFNKTAVPILIGTKYDHFMTFPREDQEEITKQARRYAKAMKASLVFCSTSHSINVQKIFKIVLAKVFDLKCTIPEIKNVGDPILEYIDREGHHHHHH”, the “soluble on expression in E. coli” value is reported as “soluble”. In the case of “MNLYLITFQSSLNRIESVYDCHKDLFVEIEKFFTLHLVPYTEAASIPADAYRMAFIASGGVEKMVTQHFELLPYPIHLLTDGQQNSLAASLEIATWIRSKGMKVHIIHGTIPNMVKQLIDHHKAFAAQREVRGKRIGVVGYSSPWLVASNVDYLLAKRRWGIEFIDIPMEEVYCLFYQIKDDDIGYEASVFANRAIACREGTPEDLLKAMRLYQAVKIICEKKKLDAVTLSCFSLIEKLGTTGCLALALLNDEGIPAGCEGDLQSIFTLLIAKTLTGQAGFMANPAFINDDQNEIVMAHCTIATKMVDQFIIRNHFETETGIAIQGILHPGGITMIKCAGECLDEYFVSTGQLIENTNYINACRTQARIKLDKPVDYFMRNPLGNHHIILMGDHEKVIHEFMQLNSCKLVE”, the “soluble on expression in E. coli” value is reported as “not soluble”. For “MGSDKIHHHHHHMNQQTAAAQSTGVQAGTESSLLDEIVEKSKVAKSESEHARAKDLIGELVSQVLDGTVVVSDNLSATIDARVAELDRLISSQLSAVMHAAEFQRLESTWRGLDYLVKESNTGSTIKIKALHAPKRDLVRDFKNATEFDQSALFKKVYEEEFGTFGGSPFGVLVGDYEISRQPEDQYFIEQMSHVAAAAHAPFIASAAPELLGLESFADLGKPRDLGKVFDTVEYAKWKSFRDSEDSRYVGLTLPRFLGRLPFNPKDGAIAESFNFVEDVDGTDHDKYLWCNASWAFAARLTAAFDDFGWCAAIRGVEGGGLVEDLPTHTFKTDDGEIALKCPTEIAITDRREKELSDLGFIPLVHCKNSDYAAFFAAQSVQKPKKYSTDSANANAVLSAQLQYIFSVSRIAHYLKAMMRDKIGSFASAQNVETFLNRWISQYVLLDDDATQEQKAQFPLREASVQVSEIPGKPGAYRSVAFLRPHFQLDELSISLRLVADLPKPANS”, the “soluble on expression in E. coli” value was “not soluble”. For “MGHHHHHHSHMSNWLEHSVQVEVEAPIDLVWGLWADLEQMPNWMKWIDSVKVPPENPDLSLWKLNTGGLEFTWKSRITKVITNQIIQWESIDGLPNQGAIRFYDRHGHSIVKMTISYAIPGFLGKIMDNLFLG”, the “soluble on expression in E. coli” value was “not soluble”. With “MVDKAGNPLTVDDISQCHLPGFPILFTQNELLEILAKEIFKQQFLWKSVQDKDIKECNKEERIIKQIPLMPRCPDVLKGLFHCIEIRDERSPKHAIAYKSCLGKLEEMVKDQWDDWNRNQS” the “soluble on expression in E. coli” value was “not soluble”. For “MGSDKIHHHHHHMAFFGYKDIDKLSGVDLAIYRFIVEHDEQIPYMRVRELARGAHVSNSSVMRFIRKIGYDSFPEFKVSLRSETPIQKPDAPGIQFVQPSAFPADITKIIRLAAQLMVNADNIVFVGIGASAALGEYASRQTSSLGFNSYVVKDPFYPLLPQLRNTSNNVLVAVSVSGQTSELVEMLNDFVNNPEVNIISITSNLESTIARMSRYALTYRATEERIHQYYDLTSQVPCLYIIEALLRELRHQEVVQHRFE”, the “soluble on expression in E. coli” value was “not soluble”. For “MGSDKIHHHHHHMVIVARCNHNGSNLTEQFPPINDIRSNSRQLVRELGFMGGDFAGTDLPPSSVHALIEIEACPGITAKDLGKLLRLEKSSVSRMLRKLILSGDIVEQTDDVDSRIKRLRLTGQGREKVSGINGFANRQVSGALAQLTATDAHTILEGLRLYAGALGARTGTPASTVDIKQGYRPGIIARITQMHALYYARTSGFGQRFESVVAEGLAAFCNRLENPRNAIWVAMRGQEIIGSVAIDGEDLGADIAHLRWFIVDDGIRGGGVGRRLLATALAFADQAGFAETHLWTFNGLLAARHLYETHGFTCTEEYPGSQWGSEVLEQRFIRPRPE”, the “soluble on expression in E. coli” value was “not soluble”. With “SLDTEKDCIKAVAAKDGITVIKVKSSNKLLSWHFMRKLFEIFEFYQEPVDMVATSEVGVSLTIDNDKNLPDIVRALSDIGDVTVDKDMVIICIVGDMEWDNVGFEARIINALKGVPVRMISYGGSNYNVSVLVKAEDKKKALIALSNKLFNSRATKA” the “soluble on expression in E. coli” value was “soluble”. In the case of “MAHHHHHHMSVPEWARSEHSIEEAKEYLRTGNSVDFFELVSSHILREHPLDVAAFALDLVERISKLGNTLSARDYHPKRVEDNKYLQEKNVCEFLNEWILALLKERPDTDEARMSFHKRYLKSLVDGGGCSQCTSVN”, the “soluble on expression in E. coli” value is reported as “not soluble”. With “MTSTTPLEPERWTPHATVATIVEKDGKFLLVEEKRLINSQGDFGIVYNQPAGHVDEGESIMAAAIRETLEETRWQVKLKHLVGIYIFTAPANNVTYHRYCFAAEATVHQAESQLDDGILDAKWLSWEEIQQLDNLRSPLVKRCIKDHIDGKHYPLDVIYEYADHEHTDDENKSQELEDRND” the “soluble on expression in E. coli” value was “soluble”. In the case of “MSYEKEFLKDFEDWVKTQIQVNQLAMATSQEVAQEDGDERAKDAFIRYESKLDAYEFLLGKFDNYKNGKAFHDIPDELFGARHY”, the “soluble on expression in E. coli” value is reported as “soluble”. For “MGSDKIHHHHHHMGKQQIWKNWWENHTCTPEHYYQPEQIDEVVEIIKSANLEQKQIKVIGSGRSWSDIPCTDGYMISLDKFNQVLDIDIEQKTVIVKSGIRIYQLVDILAKHGLALSSLGSICEQSIAGAISTGTHGNSLHQGGLASSILELELVNGIGEVIKCSKSENPDLFSAALIGLGAIGIITQVKIQCCNQFWLTETLQCWNIKDVLENLDTLKKNDYCRFWYTTTNKDAIVQTFSDSQILEKTGFIHFIKRIITQIFWFLWISWHDNPAEHDSQSFTRKDESQHILCYPRFFLKLYKLSFRMTKYCQNVLISEYGIPEEMASIAMNKILSLVDRGIIKGHLRFEVRFGAAEDVWLSTAYQRPTCYIQVLFEKKNFTSTQDQNDAFIQVENIIKNLAGRPHWAKDHLYTNDDLRSTYPRWQEFLQIRQQTDPQQCFTNSYLNKIFDDVRRTA”, the “soluble on expression in E. coli” value was “not soluble”. For “MSLTNNLTTKASLVSSAFSPVLVVGKKKELRQPVKIKAVNWHHKKRPVELQVGNFPPERYVLSPGINNIETSIPEVTAPCELPIILKEQGKTVSKINEKATPVKKWTVYLVQHTHTDIGYTKPQTEILSEHLRYIDYAIEYCEQTKDYTNDAKFRWTCESAWAVDEYLKNRPEEQVNKLKKYIAEGQIEVASMYFNMSEIVDENSFKTFLQPVKEFRKHGIPSALAMQNDVNGIAWCLADYLPDLGIKYLWMGEHHYKSQVPFNMPTVFQWESPSGKPILTYRADHYNTGNFWGIEQGDIQKTEPKLLHYLSELERKHYPFDAVGVQYSGYFTDNSPPSIIECKLIREWNEKYAYPKLRSATASEFMDYVTERYGDKIPAYRAEGHHHHHH”, the “soluble on expression in E. coli” value was “soluble”. With “MSLDIAQIALHQLIKRDEQTLDMVLRDSLLPTNAAVEDMMAELHRVYSAKSKAYGLFNEQSELADALRACRKGDEDFLSFSRAATGRLRDELAKYPFAEGGIVLFCQYRYLAVEYLLISVLNSCNSMRVNEQLDISTTHYLDINHADIIARIDLTEWETNPESTRYLTFLKGRVGRKVSDFFMDFLAASEGLDTKAQNRGLLKAVDEYCDEAQLDKNERQNYRQQVHSYCTEQLQSGEEIELASLSQELPPLGEKTFQQFSADQGYELEESFPADRGTLRQLTKFAGSGGGISLNFDALLLGERIFWDPATDTLTIKGTPPNLRDQLQRRTSGGKQLEHHHHHH” the “soluble on expression in E. coli” value was “not soluble”. With “MFSAKKLSPADKLKNISSMLEEIVEDTTVPRNIRAAADNAKNALHNEEQELIVRSATAIQYLDDISEDPNMPIHTRTQIWGIVSELETIKN” the “soluble on expression in E. coli” value was “not soluble”. In the case of “GAMSSIFINREYLLPDYIPDELPHREDQIRKIASILAPLYREEKPNNIFIYGLTGTGKTAVVKFVLSKLHKKFLGKFKHVYINTRQIDTPYRVLADLLESLDVKVPFTGLSIAELYRRLVKAVRDYGSQVVIVLDEIDAFVKKYNDDILYKLSRINSEVNKSKISFIGITNDVKFVDLLDPRVKSSLSEEEIIFPPYNAEELEDILTKRAQMAFKPGVLPDNVIKLCAALAAREHGDARRALDLLRVSGEIAERMKDTKVKEEYVYMAKEEIERDRVRDIILTLPFHSKLVLMAVVSISSEENVVSTTGAVYETYLNICKKLGVEAVTQRRVSDIINELDMVGILTAKVVNRGRYGKTKEIGLAVDKNIIVRSLIESDSRFADLWS”, the “soluble on expression in E. coli” value is reported as “soluble”. With “MLEVKELVKTFGDFKAVDHVSFTIPDGKILGLIGQNGAGKTTTFRLILNFLTQDSGSVLWNGQPLNEKEYNIIGYLPEERGLYPKITIEDQLIYFASLRGKTKKEIEPKIDFWMEKFQVKGKKTDKVKSLSKGNQQKVQLIATLIHEPKLIILDEPFSGLDPVNAELLKDGIIELKNQGSCVIFSSHNMDNVEKICDHLVMLKNGRMVLDGQVHEIRQQFGRTKLFLESPLSVEEVAATAGVKEAHLRQDGVLEATLENAEVGKVLFDKATANGYIPMFNQQPPTLEEIFKMKVGGQDE” the “soluble on expression in E. coli” value was “not soluble”. For “MRTVSTVAELRAALPREGVGFVPTMGYLHRGHLALVERARRENPFVVVSVFVNPLQFGPGEDYHRYPRDLERDRALLQEAGVDLLFAPGVEEMYPEGFATRVQVEGPLTALWEGAVRPGHFQGVATVVARLFLLVQPQRAYFGEKDYQQLLVVRRMVRDLGFPVEVVGVPTVREEDGLALSSRNVYLSPETRKKAPVLYRALLAMREVAGQGGSVAEALRAGEEALRAVPEFRKDYLAIVHPETLLPLSDWVAGARGIVAGRFPEARLIDNLEVYP”, the “soluble on expression in E. coli” value was “soluble”.
